{"source": "patent US20220251219A1", "about": "(published 2022)", "key": {"[1]": {"target": "T1, human Sortilin expressed on HEK293T cells (human, UniProt Q99523 78-830)", "T1 construct": "also called hSort; HEK293T + hSort", "experiment": "flow cytometry, antibody titration on HEK293T cells stably expressing human Sortilin, 4 C, apparent KD by non-linear fit", "description": "(§1) Antibodies were diluted in FACS buffer (PBS+2% FBS+0.01% NaAzide). After incubation on ice for 1 h, cells were washed three times in FACS buffer and incubated with anti-human PE conjugated secondary antibody (BD Biosciences, 1:100 dilution) for 30 min on ice. Then cells were washed twice in 200 μl FACS buffer, and subsequently analyzed on a FACS Canto or iQE FACS screening instrument (Intellicyt Corp)."}, "[2]": {"target": "T2, mouse Sortilin expressed on HEK293T cells (mouse, UniProt Q6PHU5 74-825)", "T2 construct": "also called msSort; mSort", "experiment": "flow cytometry, antibody titration on HEK293T cells transiently expressing mouse Sortilin, 4 C, apparent KD by non-linear fit", "description": "as §1"}}}
{"binder": "anti-Sortilin antibody S-15-6-12 (antibody, V domains shown) VH: QVQLVQSGAEVKKPGASVKVSCKASGYTFTSRYMSWVRQAPGQGLEWMGIINPVGGSTSYAQKFQGRVTMTRDTSTSTVYMELSSLRSEDTAVYYCARDPSGIALAGPGSRYYRGMDVWGQGTTVTVSS VL: EIVMTQSPATLSVSPGERATLSCRASQSVSSNLAWYQQKPGQAPRLLIYGASTRATGIPARFSGSGSGTEFTLTISSLQSEDFAVYYCQQARLGPWTFGGGTKVEIK", "values": [{"measurement": "Kd", "setting": "[1]", "result": 3.84, "unit": "nM"}, {"measurement": "Kd", "setting": "[2]", "result": 6.62, "unit": "nM"}]}
{"binder": "anti-Sortilin antibody S-15-10-13 (antibody, V domains shown) VH: QVQLVQSGAEVKKPGASVKVSCKASGYTFTKYYMSWVRQAPGQGLEWMGIINPIGGSTSYARKFQGRVTMTRDTSTSTVYMELSSLRSEDTAVYYCARDPSGIAAAYPASRYNYGMDVWGQGTTVTVSS VL: EIVMTQSPATLSVSPGERATLSCRASQSVSSNLAWYQQKPGQAPRLLIYGASTRATGIPARFSGSGSGTEFTLTISSLQSEDFAVYYCQQARLGPWTFGGGTKVEIK", "values": [{"measurement": "Kd", "setting": "[1]", "result": 2.88, "unit": "nM"}, {"measurement": "Kd", "setting": "[2]", "result": 4.07, "unit": "nM"}]}
